Laboratory results as given in patent publication US20230312742A1 (Y MABS THERAPEUTICS, published 2023).

B1: 8DC-1 (anti-CD38 scFv-(G4S)4-huC825 anti DOTA scFv-linker-P53-linker-His tag) (bispecific antibody)
chain: QVQLKQSGPGLVHPSQSLSITCTVSGFSLTSYGVHWVRQSPGKGLEWLGVMWRGGSTDYNAAFMSRLNITKDNSKRQVFFKMNSLQADDTAIYYCAKSMITTGFVMDSWGQGTSVTVSSGGGGSGGGGSGGGGSGGGGSGGGGSGGGGSDIQLTQSPSSFSVSLGDRVTITCKASEDIYNRLTWYQQKPGNAPRLLISGATSLETGVPSRFSGSGSGKDYTLSITSLQTEDVATYYCQQYWSNPYTFGGGTKLEIRGGGGSGGGGSGGGGSGGGGSHVQLVESGGGLVQPGGSLRLSCAASGFSLTDYGVHWVRQAPGKGLEWLGVIWSGGGTAYNTALISRFTISRDNSKNTLYLQMNSLRAEDTAVYYCARRGSYPYNYFDAWGCGTLVTVSSGGGGSGGGGSGGGGSGGGGSGGGGSGGGGSQAVVTQEPSLTVSPGGTVTLTCGSSTGAVTASNYANWVQQKPGQCPRGLIGGHNNRPPGVPARFSGSLLGGKAALTLLGAQPEDEAEYYCALWYSDHWVIGGGTKLTVLGTPLGDTTHTSGKPLDGEYFTLQIRGRERFEMFRELNEALELKDAQAGKEPGGSGGAPHHHHHH
notes: SADA construct with the murine AT13/5 VH and VL; also called the murine antibody
B2: 8DC-2 (anti-CD38 scFv-(G4S)4-huC825 anti DOTA scFv-linker-P53-linker-His tag) (bispecific antibody)
chain: QVQLQESGPGLVRPSQTLSLTCTVSGFTFTSYGVHWVRQPPGRGLEWIGVMWRGGSTDYNAAFMSRVTMLVDTSKNQFSLRLSSVTAADTAVYYCAKSMITTGFVMDSWGQGSLVTVSSGGGGSGGGGSGGGGSGGGGSGGGGSGGGGSDIQMTQSPSSLSASVGDRVTITCKASEDIYNRLTWYQQKPGKAPKLLISGATSLETGVPSRFSGSGSGTDFTFTISSLQPEDIATYYCQQYWSNPYTFGQGTKVEIKGGGGSGGGGSGGGGSGGGGSHVQLVESGGGLVQPGGSLRLSCAASGFSLTDYGVHWVRQAPGKGLEWLGVIWSGGGTAYNTALISRFTISRDNSKNTLYLQMNSLRAEDTAVYYCARRGSYPYNYFDAWGCGTLVTVSSGGGGSGGGGSGGGGSGGGGSGGGGSGGGGSQAVVTQEPSLTVSPGGTVTLTCGSSTGAVTASNYANWVQQKPGQCPRGLIGGHNNRPPGVPARFSGSLLGGKAALTLLGAQPEDEAEYYCALWYSDHWVIGGGTKLTVLGTPLGDTTHTSGKPLDGEYFTLQIRGRERFEMFRELNEALELKDAQAGKEPGGSGGAPHHHHHH
notes: SADA construct with VL7 and VH10 (published huAT13/5 of Ellis et al.)

Experiments:
[1] = biological target: T1, CD38 on CD38(+) cancer cells (RPMI8226, Raji, Daudi) (UniProt P28907 1-300, limits assumed); assay: flow cytometry on Raji cells, detection with an anti-his tag antibody
T1 construct: whole, on cells; Endogenous CD38 on tumour cell lines; also called CD38(+) tumor cells; CD38(+) Raji cells

[2] = biological target: T1, CD38 on CD38(+) cancer cells (RPMI8226, …); assay: flow cytometry on RPMI 8226 cells, detection with an anti-his tag antibody
[3] = biological target: T2, human CD38 antigen (recombinant human CD38 protein) (human, UniProt P28907 43-300, limits assumed); assay: SPR, antibody captured on Protein-L chip, human CD38 in solution; murine antibody, not named
[4] = biological target: T2, human CD38 antigen (recombinant human …); assay: SPR, construct captured on immobilised protein-L (HC30M chip), human CD38 antigen flown over
[5] = biological target: T2, human CD38 antigen (recombinant human …); assay: SPR, antibody captured on Protein-L chip, human CD38 in solution

Row | Binder | EC50 (read off the curve) [1] | EC50 (read off the curve) [2] | Kd [3] | koff [4] | kon [4] | Kd [5]
1 | B1 | ~0.05 µg/mL | ~0.06 µg/mL | 7.4 nM | 0.0012 s⁻¹ | 160000 M⁻¹ s⁻¹ | –
2 | B2 | – | – | – | 0.001 s⁻¹ | 6400 M⁻¹ s⁻¹ | 163 nM
